Experiment [1] has as its target T1, human amylin receptor (amylin 3(a) receptor: human calcitonin receptor plus RAMP-3) (human, UniProt P30988 25-474; O60896 24-148, limits assumed).
T1 sequence (looked up) 1: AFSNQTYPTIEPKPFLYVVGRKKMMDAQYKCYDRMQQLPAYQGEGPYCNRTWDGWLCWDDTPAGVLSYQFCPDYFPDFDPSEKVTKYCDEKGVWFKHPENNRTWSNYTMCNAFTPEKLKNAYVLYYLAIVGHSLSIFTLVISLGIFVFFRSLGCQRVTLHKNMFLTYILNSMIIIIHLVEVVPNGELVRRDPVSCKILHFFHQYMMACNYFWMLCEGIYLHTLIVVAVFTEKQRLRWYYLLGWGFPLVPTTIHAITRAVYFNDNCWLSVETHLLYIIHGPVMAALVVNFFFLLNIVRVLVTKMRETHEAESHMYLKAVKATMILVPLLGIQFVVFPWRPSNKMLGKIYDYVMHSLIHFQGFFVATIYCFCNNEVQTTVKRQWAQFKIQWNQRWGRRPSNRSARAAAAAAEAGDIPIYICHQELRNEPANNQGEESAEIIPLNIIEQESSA
T1 sequence (looked up) 2: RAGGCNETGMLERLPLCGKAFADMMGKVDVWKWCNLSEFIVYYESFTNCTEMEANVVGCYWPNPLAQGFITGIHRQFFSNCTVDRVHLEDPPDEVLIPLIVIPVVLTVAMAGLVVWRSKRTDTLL
The experiment in a line: cell-based or functional assay.

For experiment [2], the target named is T2, human calcitonin receptor (human, UniProt P30988 25-474).
T2 sequence (looked up): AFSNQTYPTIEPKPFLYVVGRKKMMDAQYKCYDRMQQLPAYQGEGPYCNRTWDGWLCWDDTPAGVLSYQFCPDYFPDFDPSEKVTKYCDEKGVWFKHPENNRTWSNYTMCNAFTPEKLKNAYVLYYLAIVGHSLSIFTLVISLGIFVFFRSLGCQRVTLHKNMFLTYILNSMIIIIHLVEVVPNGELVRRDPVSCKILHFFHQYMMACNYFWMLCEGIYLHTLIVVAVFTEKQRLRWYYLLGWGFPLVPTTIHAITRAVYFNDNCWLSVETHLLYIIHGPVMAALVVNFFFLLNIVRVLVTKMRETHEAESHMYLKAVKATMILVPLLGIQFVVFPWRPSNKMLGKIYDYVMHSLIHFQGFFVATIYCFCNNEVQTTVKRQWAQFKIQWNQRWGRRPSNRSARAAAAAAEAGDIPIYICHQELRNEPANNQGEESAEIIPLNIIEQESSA
The experiment in a line: cell-based or functional assay.

We go through four molecules from patent US20140087995A1 (published 2014).

Numbered stars: 1 amine (or outer) side, 2 acyl side, 3 side chain; on linkers, the order of the positions; unused ones are H or OH. Bridge positions count the residues as written; N and C are the ends. Side chains are listed from the residue outwards. Ends that are not written are not given here. * marks the point of attachment. C20 diacid = O=C(O)CCCCCCCCCCCCCCCCCCC(=O)*; γGlu = O=C(O)[C@H](CCC(=O)[*:2])N[*:1]; AEEA = NCCOCCOCC(=O)O

B1: N^ε-[(4S)-4-carboxy-4-(19-carboxynonadecanoylamino)butanoyl]Lys[Arg1,Arg17,Pro21,Pro27,His35]-h-amylin (peptide)
peptide: K([γGlu-C20 diacid])RCNTATCATQRLANFLRHSSPNFGAIPSSTNVGSHTY-NH2
modifications: disulfide 3-8; N-terminus assumed
SMILES: CC[C@H](C)[C@H](NC(=O)[C@H](C)NC(=O)CNC(=O)[C@H](Cc1ccccc1)NC(=O)[C@H](CC(N)=O)NC(=O)[C@@H]1CCCN1C(=O)[C@H](CO)NC(=O)[C@H](CO)NC(=O)[C@H](Cc1c[nH]cn1)NC(=O)[C@H](CCCNC(=N)N)NC(=O)[C@H](CC(C)C)NC(=O)[C@H](Cc1ccccc1)NC(=O)[C@H](CC(N)=O)NC(=O)[C@H](C)NC(=O)[C@H](CC(C)C)NC(=O)[C@H](CCCNC(=N)N)NC(=O)[C@H](CCC(N)=O)NC(=O)[C@@H](NC(=O)[C@H](C)NC(=O)[C@@H]1CSSC[C@H](NC(=O)[C@H](CCCNC(=N)N)NC(=O)[C@@H](N)CCCCNC(=O)CC[C@H](NC(=O)CCCCCCCCCCCCCCCCCCC(=O)O)C(=O)O)C(=O)N[C@@H](CC(N)=O)C(=O)N[C@@H]([C@@H](C)O)C(=O)N[C@@H](C)C(=O)N[C@@H]([C@@H](C)O)C(=O)N1)[C@@H](C)O)C(=O)N1CCC[C@H]1C(=O)N[C@@H](CO)C(=O)N[C@@H](CO)C(=O)N[C@H](C(=O)N[C@@H](CC(N)=O)C(=O)N[C@H](C(=O)NCC(=O)N[C@@H](CO)C(=O)N[C@@H](Cc1c[nH]cn1)C(=O)N[C@H](C(=O)N[C@@H](Cc1ccc(O)cc1)C(N)=O)[C@@H](C)O)C(C)C)[C@@H](C)O
notes: Synthetic acylated analogue of human amylin, extended by Lys at the N-terminus; also called compound 44
On to B1, for which, in experiment [1], the “Ratio hCT/hAmylin funct.” value came to 24 ratio and the “hAmylin-R funct. EC50” value was found to be 0.198 nM. For the same molecule, the “hCTR funct. EC50” value in experiment [2] came to 4.75 nM.

B2: N^α1-[(4S)-4-carboxy-4-(19-carboxynonadecanoylamino)butanoyl]-[Glu14,Arg17,Pro21,Pro25,Pro28,Pro29]-h-amylin (peptide)
peptide: {C20 diacid-γGlu}-KCNTATCATQRLAEFLRHSSPNFGPILPPTNVGSNTY-NH2
modifications: disulfide 2-7
SMILES: CC[C@H](C)[C@H](NC(=O)[C@@H]1CCCN1C(=O)CNC(=O)[C@H](Cc1ccccc1)NC(=O)[C@H](CC(N)=O)NC(=O)[C@@H]1CCCN1C(=O)[C@H](CO)NC(=O)[C@H](CO)NC(=O)[C@H](Cc1c[nH]cn1)NC(=O)[C@H](CCCNC(=N)N)NC(=O)[C@H](CC(C)C)NC(=O)[C@H](Cc1ccccc1)NC(=O)[C@H](CCC(=O)O)NC(=O)[C@H](C)NC(=O)[C@H](CC(C)C)NC(=O)[C@H](CCCNC(=N)N)NC(=O)[C@H](CCC(N)=O)NC(=O)[C@@H](NC(=O)[C@H](C)NC(=O)[C@@H]1CSSC[C@H](NC(=O)[C@H](CCCCN)NC(=O)CC[C@H](NC(=O)CCCCCCCCCCCCCCCCCCC(=O)O)C(=O)O)C(=O)N[C@@H](CC(N)=O)C(=O)N[C@@H]([C@@H](C)O)C(=O)N[C@@H](C)C(=O)N[C@@H]([C@@H](C)O)C(=O)N1)[C@@H](C)O)C(=O)N[C@@H](CC(C)C)C(=O)N1CCC[C@H]1C(=O)N1CCC[C@H]1C(=O)N[C@H](C(=O)N[C@@H](CC(N)=O)C(=O)N[C@H](C(=O)NCC(=O)N[C@@H](CO)C(=O)N[C@@H](CC(N)=O)C(=O)N[C@H](C(=O)N[C@@H](Cc1ccc(O)cc1)C(N)=O)[C@@H](C)O)C(C)C)[C@@H](C)O
notes: Synthetic acylated analogue of human amylin; also called compound 6
Turning to B2, in experiment [1], the “Ratio hCT/hAmylin funct.” value came out at 5.7 ratio and the “hAmylin-R funct. EC50” value was determined as 0.128 nM. The “hCTR funct. EC50” value in experiment [2] was 0.729 nM.

B3: N^ε1-[2-[2-[2-(19-carboxynonadecanoylamino)ethoxy]ethoxy]acetyl]-[Arg17,Pro21,Pro27]-h-amylin (peptide)
peptide: K([AEEA-C20 diacid])CNTATCATQRLANFLRHSSPNFGAIPSSTNVGSNTY-NH2
modifications: disulfide 2-7; N-terminus assumed
SMILES: CC[C@H](C)[C@H](NC(=O)[C@H](C)NC(=O)CNC(=O)[C@H](Cc1ccccc1)NC(=O)[C@H](CC(N)=O)NC(=O)[C@@H]1CCCN1C(=O)[C@H](CO)NC(=O)[C@H](CO)NC(=O)[C@H](Cc1c[nH]cn1)NC(=O)[C@H](CCCNC(=N)N)NC(=O)[C@H](CC(C)C)NC(=O)[C@H](Cc1ccccc1)NC(=O)[C@H](CC(N)=O)NC(=O)[C@H](C)NC(=O)[C@H](CC(C)C)NC(=O)[C@H](CCCNC(=N)N)NC(=O)[C@H](CCC(N)=O)NC(=O)[C@@H](NC(=O)[C@H](C)NC(=O)[C@@H]1CSSC[C@H](NC(=O)[C@@H](N)CCCCNC(=O)COCCOCCNC(=O)CCCCCCCCCCCCCCCCCCC(=O)O)C(=O)N[C@@H](CC(N)=O)C(=O)N[C@@H]([C@@H](C)O)C(=O)N[C@@H](C)C(=O)N[C@@H]([C@@H](C)O)C(=O)N1)[C@@H](C)O)C(=O)N1CCC[C@H]1C(=O)N[C@@H](CO)C(=O)N[C@@H](CO)C(=O)N[C@H](C(=O)N[C@@H](CC(N)=O)C(=O)N[C@H](C(=O)NCC(=O)N[C@@H](CO)C(=O)N[C@@H](CC(N)=O)C(=O)N[C@H](C(=O)N[C@@H](Cc1ccc(O)cc1)C(N)=O)[C@@H](C)O)C(C)C)[C@@H](C)O
notes: Synthetic acylated analogue of human amylin; also called compound 43
Consider B3, for which, in experiment [1], the “Ratio hCT/hAmylin funct.” value amounted to 6.5 ratio and the “hAmylin-R funct. EC50” value was determined as 0.141 nM. The “hCTR funct. EC50” value in experiment [2] is 0.92 nM.

B4: N^ε1-[2-[2-[2-[[(4S)-4-carboxy-4-(19-carboxynonadecanoylamino)butanoyl]amino]ethoxy]ethoxy]acetyl]-[Arg17,Pro21,Pro27]-h-amylin (peptide)
peptide: K([AEEA-γGlu-C20 diacid])CNTATCATQRLANFLRHSSPNFGAIPSSTNVGSNTY-NH2
modifications: disulfide 2-7; N-terminus assumed
SMILES: CC[C@H](C)[C@H](NC(=O)[C@H](C)NC(=O)CNC(=O)[C@H](Cc1ccccc1)NC(=O)[C@H](CC(N)=O)NC(=O)[C@@H]1CCCN1C(=O)[C@H](CO)NC(=O)[C@H](CO)NC(=O)[C@H](Cc1c[nH]cn1)NC(=O)[C@H](CCCNC(=N)N)NC(=O)[C@H](CC(C)C)NC(=O)[C@H](Cc1ccccc1)NC(=O)[C@H](CC(N)=O)NC(=O)[C@H](C)NC(=O)[C@H](CC(C)C)NC(=O)[C@H](CCCNC(=N)N)NC(=O)[C@H](CCC(N)=O)NC(=O)[C@@H](NC(=O)[C@H](C)NC(=O)[C@@H]1CSSC[C@H](NC(=O)[C@@H](N)CCCCNC(=O)COCCOCCNC(=O)CC[C@H](NC(=O)CCCCCCCCCCCCCCCCCCC(=O)O)C(=O)O)C(=O)N[C@@H](CC(N)=O)C(=O)N[C@@H]([C@@H](C)O)C(=O)N[C@@H](C)C(=O)N[C@@H]([C@@H](C)O)C(=O)N1)[C@@H](C)O)C(=O)N1CCC[C@H]1C(=O)N[C@@H](CO)C(=O)N[C@@H](CO)C(=O)N[C@H](C(=O)N[C@@H](CC(N)=O)C(=O)N[C@H](C(=O)NCC(=O)N[C@@H](CO)C(=O)N[C@@H](CC(N)=O)C(=O)N[C@H](C(=O)N[C@@H](Cc1ccc(O)cc1)C(N)=O)[C@@H](C)O)C(C)C)[C@@H](C)O
notes: Synthetic acylated analogue of human amylin; also called compound 41
With B4, in experiment [1], the “Ratio hCT/hAmylin funct.” value came out at 16.7 ratio and the “hAmylin-R funct. EC50” value was 0.26 nM. For the same molecule, the “hCTR funct. EC50” value in experiment [2] turned out to be 4.35 nM.
